Laboratory results taken from paper PMC9482650, “Quantitative fragmentomics allow affinity mapping of interactomes” (Nature Communications, 2022).

T1: GRIP1_4, Q9Y3R0
T1 sequence (Q9Y3R0 467-571, limits assumed, looked up): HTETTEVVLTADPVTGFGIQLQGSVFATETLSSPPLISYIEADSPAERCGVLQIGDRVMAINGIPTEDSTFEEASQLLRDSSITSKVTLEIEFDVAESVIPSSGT

T2: LIN7A, O14910
T2 sequence (O14910 103-200, limits assumed, looked up): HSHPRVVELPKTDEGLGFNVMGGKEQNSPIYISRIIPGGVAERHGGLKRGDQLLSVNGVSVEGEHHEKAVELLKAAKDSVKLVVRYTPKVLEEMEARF

T3: CARD11, Q9BXL7
T3 sequence (Q9BXL7 662-765, limits assumed, looked up): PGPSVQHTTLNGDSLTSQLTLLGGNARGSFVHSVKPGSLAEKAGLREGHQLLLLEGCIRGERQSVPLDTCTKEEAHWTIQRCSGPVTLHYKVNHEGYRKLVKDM

T4: DLG3_2, Q92796
T4 sequence (Q92796 221-321, limits assumed, looked up): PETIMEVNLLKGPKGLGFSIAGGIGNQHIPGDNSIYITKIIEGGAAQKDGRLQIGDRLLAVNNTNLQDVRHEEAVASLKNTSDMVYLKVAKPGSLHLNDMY

T5: FRMPD1, Q5SYB0
T5 sequence (Q5SYB0 52-145, limits assumed, looked up): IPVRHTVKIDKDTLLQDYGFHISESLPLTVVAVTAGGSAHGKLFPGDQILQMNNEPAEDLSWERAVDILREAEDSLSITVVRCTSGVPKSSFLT

T6: RAPGEF6, Q8TEU7
T6 sequence (Q8TEU7 525-625, limits assumed, looked up): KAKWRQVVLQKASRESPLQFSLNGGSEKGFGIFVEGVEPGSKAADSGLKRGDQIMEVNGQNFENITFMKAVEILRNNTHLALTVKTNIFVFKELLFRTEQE

T7: SNTG1, Q9NSN8
T7 sequence (Q9NSN8 52-150, limits assumed, looked up): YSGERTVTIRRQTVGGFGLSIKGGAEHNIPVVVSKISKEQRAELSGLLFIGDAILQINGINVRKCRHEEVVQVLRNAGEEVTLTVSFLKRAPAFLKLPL

T8: MPP7, Q5T2T1
T8 sequence (Q5T2T1 134-230, limits assumed, looked up): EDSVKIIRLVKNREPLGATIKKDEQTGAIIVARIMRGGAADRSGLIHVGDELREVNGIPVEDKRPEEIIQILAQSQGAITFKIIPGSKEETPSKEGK

T9: MPP6, Q9NZW5
T9 sequence (Q9NZW5 125-219, limits assumed, looked up): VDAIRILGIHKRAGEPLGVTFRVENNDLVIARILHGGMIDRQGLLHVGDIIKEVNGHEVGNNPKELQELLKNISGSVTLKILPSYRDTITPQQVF


Legend:
Assay in all cases: holdup assay
Design in all cases: key: below the threshold = too weak to quantify, mostly under pKd 3.1 to 4
Conditions in all cases: plain residues with an end cap or a label only (N-terminal biotin on a linker: ado-ado)
HTRA2, O43464 = target: HTRA2, O43464
LNX1_3, Q8TBB1 = target: LNX1_3, Q8TBB1
PDZRN4_1, Q6ZMN7 = target: PDZRN4_1, Q6ZMN7
IL16_4, Q14005 = target: IL16_4, Q14005
GRIP1_4, Q9Y3R0 = target: T1, GRIP1_4, Q9Y3R0
LDB3, O75112 = target: LDB3, O75112
NHERF4_4, Q86UT5 = target: NHERF4_4, Q86UT5
MAGI1_1, Q96QZ7 = target: MAGI1_1, Q96QZ7
LIN7A, O14910 = target: T2, LIN7A, O14910
CARD11, Q9BXL7 = target: T3, CARD11, Q9BXL7
AHNAK1, Q09666 = target: AHNAK1, Q09666
DLG3_2, Q92796 = target: T4, DLG3_2, Q92796
HTRA1, Q92743 = target: HTRA1, Q92743
LIMK2, P53671 = target: LIMK2, P53671
DLG1_2, Q12959 = target: DLG1_2, Q12959
GRIP2_6, Q9C0E4 = target: GRIP2_6, Q9C0E4
LNX1_1, Q8TBB1 = target: LNX1_1, Q8TBB1
MAGI1_2, Q96QZ7 = target: MAGI1_2, Q96QZ7
FRMPD1, Q5SYB0 = target: T5, FRMPD1, Q5SYB0
MAST1, Q9Y2H9 = target: MAST1, Q9Y2H9
IL16_3, Q14005 = target: IL16_3, Q14005
Inadl_9, Q8NI35 = target: Inadl_9, Q8NI35
GRIP2_4, Q9C0E4 = target: GRIP2_4, Q9C0E4
GRIP2_5, Q9C0E4 = target: GRIP2_5, Q9C0E4
RAPGEF6, Q8TEU7 = target: T6, RAPGEF6, Q8TEU7
SNTG1, Q9NSN8 = target: T7, SNTG1, Q9NSN8
MPP7, Q5T2T1 = target: T8, MPP7, Q5T2T1
FRMPD2_3, Q68DX3 = target: FRMPD2_3, Q68DX3
MPP6, Q9NZW5 = target: T9, MPP6, Q9NZW5

Sequence of MAGI1_1, Q96QZ7 (Q96QZ7 1-106): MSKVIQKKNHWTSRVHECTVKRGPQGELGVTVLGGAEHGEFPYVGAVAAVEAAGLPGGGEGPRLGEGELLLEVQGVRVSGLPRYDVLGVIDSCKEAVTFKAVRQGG
Sequence of LIMK2, P53671 (P53671 143-248): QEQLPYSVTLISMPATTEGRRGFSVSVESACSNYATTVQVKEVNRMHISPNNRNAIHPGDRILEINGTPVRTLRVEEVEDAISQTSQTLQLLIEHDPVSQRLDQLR
Sequence of NHERF4_4, Q86UT5 (Q86UT5 464-550): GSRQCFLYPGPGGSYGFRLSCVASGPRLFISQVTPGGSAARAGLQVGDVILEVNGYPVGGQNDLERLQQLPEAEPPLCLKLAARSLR
Sequence of FRMPD2_3, Q68DX3 (Q68DX3 1073-1166): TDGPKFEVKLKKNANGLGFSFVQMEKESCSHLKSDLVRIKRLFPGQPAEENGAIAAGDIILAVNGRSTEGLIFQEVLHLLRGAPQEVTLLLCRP
Sequence of GRIP2_4, Q9C0E4 (Q9C0E4 446-548): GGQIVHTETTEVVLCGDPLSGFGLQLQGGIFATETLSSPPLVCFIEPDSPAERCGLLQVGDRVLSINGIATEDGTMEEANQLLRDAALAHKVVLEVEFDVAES
Sequence of LNX1_3, Q8TBB1 (Q8TBB1 500-596): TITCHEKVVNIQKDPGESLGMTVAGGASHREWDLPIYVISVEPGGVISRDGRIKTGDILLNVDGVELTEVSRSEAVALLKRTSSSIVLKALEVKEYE
Sequence of DLG1_2, Q12959 (Q12959 314-412): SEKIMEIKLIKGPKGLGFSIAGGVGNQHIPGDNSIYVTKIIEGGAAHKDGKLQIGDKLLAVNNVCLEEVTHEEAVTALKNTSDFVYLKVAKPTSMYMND
Sequence of LNX1_1, Q8TBB1 (Q8TBB1 261-371): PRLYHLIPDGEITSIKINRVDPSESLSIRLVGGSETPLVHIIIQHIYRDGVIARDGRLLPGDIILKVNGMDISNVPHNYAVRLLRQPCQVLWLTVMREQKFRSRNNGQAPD
Sequence of LDB3, O75112 (O75112 1-94): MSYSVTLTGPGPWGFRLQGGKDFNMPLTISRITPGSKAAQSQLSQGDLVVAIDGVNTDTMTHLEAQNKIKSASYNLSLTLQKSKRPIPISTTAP
Sequence of MAST1, Q9Y2H9 (Q9Y2H9 962-1065): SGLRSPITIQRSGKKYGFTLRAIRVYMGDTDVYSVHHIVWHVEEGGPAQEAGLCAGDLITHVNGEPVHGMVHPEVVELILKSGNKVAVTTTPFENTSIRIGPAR
Sequence of GRIP2_6, Q9C0E4 (Q9C0E4 648-740): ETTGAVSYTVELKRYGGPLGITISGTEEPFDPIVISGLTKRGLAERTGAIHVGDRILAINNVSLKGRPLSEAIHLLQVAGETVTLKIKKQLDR
Sequence of HTRA1, Q92743 (Q92743 360-477): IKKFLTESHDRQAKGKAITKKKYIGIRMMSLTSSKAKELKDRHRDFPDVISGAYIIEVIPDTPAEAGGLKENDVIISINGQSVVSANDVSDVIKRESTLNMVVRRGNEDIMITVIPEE
Sequence of IL16_4, Q14005 (Q14005 1229-1329): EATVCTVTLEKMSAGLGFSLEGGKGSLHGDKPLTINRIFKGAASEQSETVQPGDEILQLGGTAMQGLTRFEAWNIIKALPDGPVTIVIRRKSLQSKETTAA
Sequence of PDZRN4_1, Q6ZMN7 (Q6ZMN7 213-318): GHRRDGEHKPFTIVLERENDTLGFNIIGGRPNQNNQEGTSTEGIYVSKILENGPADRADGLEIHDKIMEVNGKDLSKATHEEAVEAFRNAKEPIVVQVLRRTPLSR
Sequence of IL16_3, Q14005 (Q14005 1107-1207): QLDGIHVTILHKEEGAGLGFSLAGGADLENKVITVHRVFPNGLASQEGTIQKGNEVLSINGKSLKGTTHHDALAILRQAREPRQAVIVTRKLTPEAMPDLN
Sequence of MAGI1_2, Q96QZ7 (Q96QZ7 456-580): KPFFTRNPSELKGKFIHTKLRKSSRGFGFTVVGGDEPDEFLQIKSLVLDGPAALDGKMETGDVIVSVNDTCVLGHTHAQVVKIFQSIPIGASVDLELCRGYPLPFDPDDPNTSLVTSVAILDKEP
Sequence of AHNAK1, Q09666 (Q09666 4-100): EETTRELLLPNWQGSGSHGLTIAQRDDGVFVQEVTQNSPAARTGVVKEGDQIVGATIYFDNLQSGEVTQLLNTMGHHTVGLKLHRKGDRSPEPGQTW
Sequence of GRIP2_5, Q9C0E4 (Q9C0E4 544-642): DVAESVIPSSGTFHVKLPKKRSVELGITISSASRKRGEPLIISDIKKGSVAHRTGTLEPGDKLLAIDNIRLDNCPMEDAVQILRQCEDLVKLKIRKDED
Sequence of Inadl_9, Q8NI35 (Q8NI35 1530-1615): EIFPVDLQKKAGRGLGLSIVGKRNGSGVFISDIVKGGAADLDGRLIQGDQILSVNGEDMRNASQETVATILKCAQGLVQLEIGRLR
Sequence of HTRA2, O43464 (O43464 355-458): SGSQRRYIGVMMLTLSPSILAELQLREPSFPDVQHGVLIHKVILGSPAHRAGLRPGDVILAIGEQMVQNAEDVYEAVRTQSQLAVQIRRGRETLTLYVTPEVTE

| pKd (HTRA2, O43464) | pKd (LNX1_3, Q8TBB1) | pKd (PDZRN4_1, Q6ZMN7) | pKd (IL16_4, Q14005) | pKd (GRIP1_4, Q9Y3R0) | pKd (LDB3, O75112) | pKd (NHERF4_4, Q86UT5) | pKd (MAGI1_1, Q96QZ7) | pKd (LIN7A, O14910) | pKd (CARD11, Q9BXL7) | pKd (AHNAK1, Q09666) | pKd (DLG3_2, Q92796) | pKd (HTRA1, Q92743) | pKd (LIMK2, P53671) | pKd (DLG1_2, Q12959) | pKd (GRIP2_6, Q9C0E4) | pKd (LNX1_1, Q8TBB1) | pKd (MAGI1_2, Q96QZ7) | pKd (FRMPD1, Q5SYB0) | pKd (MAST1, Q9Y2H9) | Binder | further results |
| --- | --- | --- | --- | --- | --- | --- | --- | --- | --- | --- | --- | --- | --- | --- | --- | --- | --- | --- | --- | --- | --- |
| below the threshold | below the threshold | below the threshold | 3.7 | below the threshold | below the threshold | below the threshold | below the threshold | below the threshold | below the threshold | below the threshold | 3.96 | 3.6 | below the threshold | 4.07 | below the threshold | 3.64 | 4.13 | below the threshold | 4.64 | LPHPHSTTRV [NLGN2, Q8NFZ4] | pKd (IL16_3, Q14005): below the threshold; pKd (Inadl_9, Q8NI35): below the threshold; pKd (GRIP2_4, Q9C0E4): below the threshold; pKd (GRIP2_5, Q9C0E4): below the threshold; pKd (RAPGEF6, Q8TEU7): below the threshold; pKd (SNTG1, Q9NSN8): below the threshold; pKd (MPP7, Q5T2T1): below the threshold; pKd (FRMPD2_3, Q68DX3): below the threshold; pKd (MPP6, Q9NZW5): below the threshold |
| below the threshold | below the threshold | below the threshold | below the threshold | below the threshold | below the threshold | below the threshold | 3.55 | below the threshold | below the threshold | below the threshold | below the threshold | 3.94 | below the threshold | below the threshold | below the threshold | below the threshold | below the threshold | below the threshold | 3.51 | PAPSSGKDYV [CLDN1, O95832] | pKd (IL16_3, Q14005): below the threshold; pKd (Inadl_9, Q8NI35): 3.61; pKd (GRIP2_4, Q9C0E4): below the threshold; pKd (GRIP2_5, Q9C0E4): below the threshold; pKd (RAPGEF6, Q8TEU7): below the threshold; pKd (SNTG1, Q9NSN8): below the threshold; pKd (MPP7, Q5T2T1): below the threshold; pKd (FRMPD2_3, Q68DX3): below the threshold; pKd (MPP6, Q9NZW5): 3.88 |
| below the threshold | below the threshold | 3.66 | 3.71 | below the threshold | below the threshold | 3.97 | below the threshold | below the threshold | below the threshold | below the threshold | below the threshold | 4.77 | below the threshold | 3.67 | below the threshold | 3.86 | below the threshold | below the threshold | 4.52 | QGLAERISVL [PRKD2, Q9BZL6] | pKd (IL16_3, Q14005): below the threshold; pKd (Inadl_9, Q8NI35): below the threshold; pKd (GRIP2_4, Q9C0E4): below the threshold; pKd (GRIP2_5, Q9C0E4): below the threshold; pKd (RAPGEF6, Q8TEU7): below the threshold; pKd (SNTG1, Q9NSN8): 3.54; pKd (MPP7, Q5T2T1): below the threshold; pKd (FRMPD2_3, Q68DX3): below the threshold; pKd (MPP6, Q9NZW5): below the threshold |
| below the threshold | below the threshold | below the threshold | below the threshold | below the threshold | below the threshold | below the threshold | below the threshold | below the threshold | below the threshold | below the threshold | 4.09 | below the threshold | below the threshold | below the threshold | below the threshold | below the threshold | below the threshold | below the threshold | 3.55 | NHSSSPETTA [TRMT13, Q9NUP7] | pKd (IL16_3, Q14005): below the threshold; pKd (Inadl_9, Q8NI35): below the threshold; pKd (GRIP2_4, Q9C0E4): below the threshold; pKd (GRIP2_5, Q9C0E4): below the threshold; pKd (RAPGEF6, Q8TEU7): below the threshold; pKd (SNTG1, Q9NSN8): below the threshold; pKd (MPP7, Q5T2T1): below the threshold; pKd (FRMPD2_3, Q68DX3): below the threshold; pKd (MPP6, Q9NZW5): below the threshold |
| below the threshold | below the threshold | 4.98 | below the threshold | 3.47 | below the threshold | below the threshold | 3.63 | 4.15 | 3.49 | below the threshold | 4.22 | 4.16 | below the threshold | 4.51 | below the threshold | 4.19 | 3.63 | below the threshold | 4.21 | EVEEFPETSV [TRPV3, Q8NET8] | pKd (IL16_3, Q14005): below the threshold; pKd (Inadl_9, Q8NI35): 3.93; pKd (GRIP2_4, Q9C0E4): 3.55; pKd (GRIP2_5, Q9C0E4): below the threshold; pKd (RAPGEF6, Q8TEU7): 3.64; pKd (SNTG1, Q9NSN8): 5.53; pKd (MPP7, Q5T2T1): 3.57; pKd (FRMPD2_3, Q68DX3): below the threshold; pKd (MPP6, Q9NZW5): below the threshold |
